These are literature values, as cited in article PMC6667839.

The target of the data set is IL-33 112-270 (Homo sapiens) (UniProt O95760).
Chain of UniProt O95760 (O95760 112-270): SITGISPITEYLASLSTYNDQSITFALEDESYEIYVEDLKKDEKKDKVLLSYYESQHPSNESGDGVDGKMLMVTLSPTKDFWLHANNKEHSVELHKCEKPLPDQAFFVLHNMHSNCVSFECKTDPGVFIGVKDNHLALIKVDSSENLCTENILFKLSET

One may read the Kd as the constant that tells how readily two partners part at equilibrium. As for sST2 (from UniProt Q01638), the Kd is 4 nM.
